Test results reported in article PMC3168981 (Nature structural & molecular biology, 2011).

Target: T1, AlexaFluor488-labeled human PLCβ3-Δ892 R872A L876A L879A triple mutant (human, UniProt Q01970 10-891, R872A | L876A | L879A)
T1 sequence: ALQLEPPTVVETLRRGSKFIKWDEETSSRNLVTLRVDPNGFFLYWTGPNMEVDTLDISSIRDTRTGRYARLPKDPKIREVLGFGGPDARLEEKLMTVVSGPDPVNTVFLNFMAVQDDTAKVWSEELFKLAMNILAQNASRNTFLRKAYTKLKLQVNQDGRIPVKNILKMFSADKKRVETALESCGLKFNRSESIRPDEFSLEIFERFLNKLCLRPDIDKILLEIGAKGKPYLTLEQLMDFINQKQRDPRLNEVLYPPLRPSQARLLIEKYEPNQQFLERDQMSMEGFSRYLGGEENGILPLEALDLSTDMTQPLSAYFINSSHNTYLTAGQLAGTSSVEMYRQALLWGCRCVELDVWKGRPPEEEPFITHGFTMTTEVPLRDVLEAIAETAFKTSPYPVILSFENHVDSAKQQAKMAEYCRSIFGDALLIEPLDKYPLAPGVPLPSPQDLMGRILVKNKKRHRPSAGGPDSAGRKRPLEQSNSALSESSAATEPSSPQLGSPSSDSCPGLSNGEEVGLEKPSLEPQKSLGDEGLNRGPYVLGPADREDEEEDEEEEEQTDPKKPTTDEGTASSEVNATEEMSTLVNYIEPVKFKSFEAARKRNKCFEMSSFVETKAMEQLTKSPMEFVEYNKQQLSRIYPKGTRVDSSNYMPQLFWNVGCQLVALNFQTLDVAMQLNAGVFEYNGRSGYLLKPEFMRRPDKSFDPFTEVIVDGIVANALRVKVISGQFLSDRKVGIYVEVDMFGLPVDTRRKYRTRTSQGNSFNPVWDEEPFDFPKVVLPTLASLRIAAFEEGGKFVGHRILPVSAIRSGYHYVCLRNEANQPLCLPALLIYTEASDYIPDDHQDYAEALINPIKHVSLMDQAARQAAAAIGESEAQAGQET
Assay: flow cytometry protein interaction assay

Kd: 20.5 nM
B1: Gαi/q chimera (murine Gαq with its N-terminal helix replaced with that of Gαi), biotinylated, AlF4-activated (other)
chain: MGCTLSAEDKAAVERSKMIDRNLREDGEKARRELKLLLLGTGESGKSTFIKQMRIIHGSGYSDEDKRGFTKLVYQNIFTAMQAMIRAMDTLKIPYKYEHNKAHAQLVREVDVEKVSAFENPYVDAIKSLWNDPGIQECYDRRREYQLSDSTKYYLNDLDRVADPSYLPTQQDVLRVRVPTTGIIEYPFDLQSVIFRMVDVGGQRSERRKWIHCFENVTSIMFLVALSEYDQVLVESDNENRMEESKALFRTIITYPWFQNSSVILFLNKKDLLEEKIMYSHLVDYFPEYDGPQRDAQAAREFILKMFVDLNPDSDKIIYSHFTCATDTENIRFVFAAVKDTILQLNLKEYNLV
modifications: biotinylated (sites not given)
